# According to paper PMC6056499, “A systematic dissection of sequence elements determining β-Klotho and FGF interaction and signaling” (Scientific Reports, 2018):
# Residue numbers refer to the chain shown, from its start.
# B1: mature human FGF21 polypeptide fused with the human Fc fragment at the N-terminus (Fc-FGF21), wild type, Q9NSA1 191S-A (protein)
# chain: HPIPDSSPLLQFGGQVRQRYLYTDDAQQTEAHLEIREDGTVGGAADQSPESLLQLKALKPGVIQILGVKTSRFLCQRPDGALYGSLHFDPEACSFRELLLEDGYNVYQSEAHGLPLHLPGNKSPHRDPAPRGPARFLPLPGLPPALPEPPGILAPQPPDVGSADPLSMVGPSQGRSPSYAS
# B2: mature human FGF21 polypeptide fused with the human Fc fragment at the N-terminus (Fc-FGF21), wild type, Q9NSA1 191S-R (protein)
# chain: B1 chain with A163R
# B3: mature human FGF21 polypeptide fused with the human Fc fragment at the N-terminus (Fc-FGF21), wild type, Q9NSA1 207Y-A (protein)
# chain: B1 chain with A163S, Y179A
# B4: mature human FGF21 polypeptide fused with the human Fc fragment at the N-terminus (Fc-FGF21), wild type, Q9NSA1 206S-A (protein)
# chain: B1 chain with A163S, S178A
# B5: mature human FGF21 polypeptide fused with the human Fc fragment at the N-terminus (Fc-FGF21), wild type, Q9NSA1 204S-A (protein)
# chain: B1 chain with A163S, S176A
# B6: mature human FGF21 polypeptide fused with the human Fc fragment at the N-terminus (Fc-FGF21), wild type, Q9NSA1 204S-R (protein)
# chain: B1 chain with A163S, S176R
# B7: mature human FGF21 polypeptide fused with the human Fc fragment at the N-terminus (Fc-FGF21), wild type, Q9NSA1 206S-R (protein)
# chain: B1 chain with A163S, S178R
# B8: mature human FGF21 polypeptide fused with the human Fc fragment at the N-terminus (Fc-FGF21), wild type, Q9NSA1 207Y-R (protein)
# chain: B1 chain with A163S, Y179R
# Molecular target: human β-Klotho extracellular domain (aa1–992) fused with a 6 × His tag at the C-terminus, Q86Z14
# Test: solid-phase binding assay
# Settings: chain shown with the change;; parent: est. 1.0; read off a plot
# Sequence of human β-Klotho extracellular domain (aa1–992) fused with a 6 × His tag at the C-terminus, Q86Z14 (Q86Z14 53-992): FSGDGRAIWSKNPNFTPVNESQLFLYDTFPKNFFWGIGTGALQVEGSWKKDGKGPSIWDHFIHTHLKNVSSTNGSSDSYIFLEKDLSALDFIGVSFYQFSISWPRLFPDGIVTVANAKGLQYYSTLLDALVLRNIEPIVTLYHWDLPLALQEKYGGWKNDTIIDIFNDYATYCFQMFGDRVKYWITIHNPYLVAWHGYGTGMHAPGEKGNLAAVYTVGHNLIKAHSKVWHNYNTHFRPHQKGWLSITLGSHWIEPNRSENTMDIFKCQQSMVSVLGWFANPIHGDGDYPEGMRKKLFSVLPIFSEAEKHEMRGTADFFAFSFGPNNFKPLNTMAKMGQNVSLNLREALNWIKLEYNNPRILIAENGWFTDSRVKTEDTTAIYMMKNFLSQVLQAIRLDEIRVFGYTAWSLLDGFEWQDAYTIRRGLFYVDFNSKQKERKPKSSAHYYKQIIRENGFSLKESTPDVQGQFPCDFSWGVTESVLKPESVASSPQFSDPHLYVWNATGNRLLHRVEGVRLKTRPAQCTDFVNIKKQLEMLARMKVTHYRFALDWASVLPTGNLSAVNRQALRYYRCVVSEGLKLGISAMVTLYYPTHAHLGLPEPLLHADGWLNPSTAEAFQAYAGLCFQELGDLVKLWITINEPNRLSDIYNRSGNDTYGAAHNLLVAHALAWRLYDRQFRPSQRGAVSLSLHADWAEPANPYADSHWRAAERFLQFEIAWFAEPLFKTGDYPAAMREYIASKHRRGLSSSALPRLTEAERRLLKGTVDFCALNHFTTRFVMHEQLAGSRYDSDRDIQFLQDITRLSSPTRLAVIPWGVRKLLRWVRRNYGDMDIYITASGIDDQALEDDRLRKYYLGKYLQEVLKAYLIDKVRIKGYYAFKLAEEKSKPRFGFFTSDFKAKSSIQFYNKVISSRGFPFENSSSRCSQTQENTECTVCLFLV
row,ratio to parent,Binder
1,0.6,B1
2,350,B2
3,180,B3
4,120,B4
5,120,B5
6,250,B6
7,170,B7
8,530,B8
